Results on ten molecules are retold here after patent US20120014957A1 (AbbVie / Abbott, published 2012).

Assay [1] concerns the target T1, Recombinant Human MSP R/Ron (human, UniProt Q04912 25-571, limits assumed).
T1 construct: Bought reagent
In words: SPR (Biacore). As for the experimental part: (§1) The BIACORE assay (Biacore, Inc, Piscataway, N.J.) determines the affinity of antibodies or DVD-Ig with kinetic measurements of on-rate and off-rate constants. Binding of antibodies or DVD-Ig to a target antigen (for example, a purified recombinant target antigen) was determined by surface plasmon resonance-based measurements with a Biacore® 1000 or 3000 instrument (Biacore® AB, Uppsala, Sweden) using running HBS-EP (10 mM HEPES [pH 7.4], 150 mM NaCl, 3 mM EDTA, and 0.005% surfactant P20) at 25° C. All chemicals were obtained from Biacore® AB (Uppsala, Sweden) or otherwise from a different source as described in the text. For example, approximately 5000 RU of goat anti-mouse IgG, (Fcγ), fragment specific polyclonal antibody (Pierce Biotechnology Inc, Rockford, Ill.) diluted in 10 mM sodium acetate (pH 4.5) was directly immobilized across a CM5 research grade biosensor chip using a standard amine coupling kit according to manufacturer's instructions and procedures at 25 μg/ml. Unreacted moieties on the biosensor surface were blocked with ethanolamine. Modified carboxymethyl dextran surface in flowcell 2 and 4 was used as a reaction surface. Unmodified carboxymethyl dextran without goat anti-mouse IgG in flow cell 1 and 3 was used as the reference surface. For kinetic analysis, rate equations derived from the 1:1 Langmuir binding model were fitted simultaneously to association and dissociation phases of all eight injections (using global fit analysis) with the use of Biaevaluation 4.0.1 software. Purified antibodies or DVD-Ig were diluted in HEPES-buffered saline for capture across goat anti-mouse IgG specific reaction surfaces. Antibodies or DVD-Ig to be captured as a ligand (25 μg/ml) were injected over reaction matrices at a flow rate of 5 μl/min. The association and dissociation rate constants, kₒₙ (M⁻¹s⁻¹) and koff (s⁻¹) were determined under a continuous flow rate of 25 μl/min. Rate constants were derived by making kinetic binding measurements at different antigen concentrations ranging from 10-200 nM. The equilibrium dissociation constant (M) of the reaction between antibodies or DVD-Igs and the target antigen was then calculated from the kinetic rate constants by the following formula: KD=koff/kₒₙ. Binding was recorded as a function of time and kinetic rate constants were calculated.
On the technique in general: SPR reads the build-up and loss of mass on a sensor chip optically.

In assay [2] the target is T2, CD-20 on cells (UniProt P11836 1-297, limits assumed).
T2 construct: whole, on cells
T2 sequence (looked up): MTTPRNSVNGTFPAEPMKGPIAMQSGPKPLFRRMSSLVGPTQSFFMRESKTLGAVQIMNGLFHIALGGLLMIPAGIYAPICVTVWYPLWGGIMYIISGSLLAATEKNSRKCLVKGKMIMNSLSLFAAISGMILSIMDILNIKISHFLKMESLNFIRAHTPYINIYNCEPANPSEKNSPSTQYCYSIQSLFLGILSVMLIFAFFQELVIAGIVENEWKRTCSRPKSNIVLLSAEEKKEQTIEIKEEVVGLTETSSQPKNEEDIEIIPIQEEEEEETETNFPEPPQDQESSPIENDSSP
In words: flow cytometry on cells, antibody at 2 ug/mL. Here is the method:
(§2) Stable cell lines overexpressing a cell-surface antigen of interest or human tumor cell lines were harvested from tissue culture flasks and resuspended in phosphate buffered saline (PBS) containing 5% fetal bovine serum (PBS/FBS). Prior to staining, human tumor cells were incubated on ice with (100 μl) human IgG at 5 μg/ml in PBS/FCS. 1−5×10⁵ cells were incubated with antibody or DVD-Ig (2 μg/mL) in PBS/FBS for 30-60 minutes on ice. Cells were washed twice and 100 μl of F(ab′)2 goat anti human IgG, Fcγ-phycoerythrin (1:200 dilution in PBS) (Jackson ImmunoResearch, West Grove, Pa., Cat. #109-116-170) was added. After a 30 minute incubation on ice, cells were washed twice and resuspended in PBS/FBS. Fluorescence was measured using a Becton Dickinson FACSCalibur (Becton Dickinson, San Jose, Calif.).
(§3) The geometric mean is the n root of the multiplication product of n fluorescent signals (a1×a2×a3 . . . an). With log-transformed data the geometric mean is used to normalize the weighting of the data distribution.

Assay [3] concerns the target T3, Recombinant Human VEGF 165 (human, UniProt P15692-4 27-191).
T3 construct: Bought reagent
In words: SPR (Biacore). As for the experimental part: as §1

Assay [4] has as its target T4, DLL4 on cells (UniProt Q9NR61 27-685, limits assumed).
T4 construct: whole, on cells
In words: flow cytometry on cells, antibody at 2 ug/mL. As for the experimental part:
as §2, §3
Background: Flow cytometry measures light scatter and fluorescence of single cells or particles in a stream.

Assay [5] deals with T5, Recombinant Human DLL4 (human, UniProt Q9NR61 27-524).
T5 construct: Bought reagent of the Biacore analyses
In words: SPR (Biacore). Here is the method: as §1

Assay [6] concerns the target T6, IGFR on cells (UniProt P08069 31-1367, limits assumed).
T6 construct: whole, on cells; also called IGF1R
In words: flow cytometry on cells, DVD-Ig at 2 ug/mL. As for the experimental part:
as §2, §3

The target of assay [7] is T7, Recombinant Human PlGF (human, UniProt P49763-2 21-149, limits assumed).
T7 construct: Bought reagent; also called P1GF
T7 sequence (looked up): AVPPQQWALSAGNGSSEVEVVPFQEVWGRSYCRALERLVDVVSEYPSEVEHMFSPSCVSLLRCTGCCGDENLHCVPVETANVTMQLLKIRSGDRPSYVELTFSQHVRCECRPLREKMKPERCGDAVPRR
In words: SPR (Biacore). As for the experimental part:
as §1

Assay [8] concerns the target T6, IGFR on cells. As to the kind of experiment: flow cytometry on cells, antibody at 2 ug/mL. Here is the method:
as §2, §3

T3 sequence (P15692 other isoform, or with tags, fused parts or gaps limits assumed): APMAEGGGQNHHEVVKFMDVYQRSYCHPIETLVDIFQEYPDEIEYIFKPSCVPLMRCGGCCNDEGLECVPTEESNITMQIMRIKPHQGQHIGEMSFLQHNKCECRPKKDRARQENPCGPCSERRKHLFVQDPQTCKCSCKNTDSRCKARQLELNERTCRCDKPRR

B1: AB005 (antibody, V domains shown)
VH: EVQLVQSGGGLVKPGGSLRLSCAASGFTFSSYAMHWVRQAPGKGLEWVAVISYDGSNKYYADSVKGRFTISRDNSKNTLYLQMNSLRAEDTAVYYCARFSGWPNNYYYYGMDVWGQGTTVTVSS
VL: DVVMTQSPLSLPVTPGEPASISCRSSQSLLHSNGFNYVDWYLQKPGQSPHLLIYFGSYRASGVPDRFSGSGSGTDFTLKISRVEAEDVGVYYCMQALQTPPWTFGQGTKVEIRR
notes: Parent antibody; also called RON
What is called Kd is the equilibrium constant for the complex coming apart. The term koff denotes the first-order rate constant of dissociation. A word on the kon: it is a measure of how fast the partners come together. For the molecule B1, in assay [1], the Kd was determined as 20.2 nM, the koff came out at 0.000739 s⁻¹ and the kon amounted to 36600 M⁻¹ s⁻¹.

B2: AB001 (antibody, V domains shown)
VH: QVQLQQPGAELVKPGASVKMSCKASGYTFTSYNMHWVKQTPGRGLEWIGAIYPGNGDTSYNQKFKGKATLTADKSSSTAYMQLSSLTSEDSAVYYCARSTYYGGDWYFNVWGAGTTVTVSA
VL: QIVLSQSPAILSPSPGEKVTMTCRASSSVSYIHWFQQKPGSSPKPWIYATSNLASGVPVRFSGSGSGTSYSLTISRVEAEDAATYYCQQWTSNPPTFGGGTKLEIKR
notes: Parent antibody; also called CD-20; AB001VH
With B2, in assay [2], the “FACS Geometric Mean” value is 1400.

B3: DVD1328 (bispecific antibody, human IgG1, kappa)
heavy: not shown
light: DIQMTQSPSSLSASVGDRVTITCSASQDISNYLNWYQQKPGKAPKVLIYFTSSLHSGVPSRFSGSGSGTDFTLTISSLQPEDFATYYCQQYSTVPWTFGQGTKVEIKRTVAAPDIQMTQSPSSLSASVGDRVTITCRASEDIYNALAWYQQKPGKAPKLLIYNTDTLHTGVPSRFSGSGSGTDYTLTISSLQPEDFATYFCQHYFHYPRTFGQGTKVEIKRTVAAPSVFIFPPSDEQLKSGTASVVCLLNNFYPREAKVQWKVDNALQSGNSQESVTEQDSKDSTYSLSSTLTLSKADYEKHKVYACEVTHQGLSSPVTKSFNRGEC
notes: DVD-Ig; also called DVD1328H; DVD1328L
Take B3: in assay [3], the Kd turned out to be 0.08 nM, the koff stood at 7.7e-05 s⁻¹ and the association rate constant (kon) stood at 960000 M⁻¹ s⁻¹.

B4: DVD1334 (bispecific antibody, human IgG1, kappa)
heavy: not shown
light: QAVLTQPSSLSAPPGASASLTCTLRSGFNVDSYRISWYQQKPGSPPQYLLRYKSDSDKQQGSGVPSRFSGSKDASANAGILLISGLQSEDEADYYCMIWHSSAWVFGGGTKLTVLRTVAAPDIQMTQSPSSLSASVGDRVTITCRASEDIYNALAWYQQKPGKAPKLLIYNTDTLHTGVPSRFSGSGSGTDYTLTISSLQPEDFATYFCQHYFHYPRTFGQGTKVEIKRTVAAPSVFIFPPSDEQLKSGTASVVCLLNNFYPREAKVQWKVDNALQSGNSQESVTEQDSKDSTYSLSSTLTLSKADYEKHKVYACEVTHQGLSSPVTKSFNRGEC
notes: DVD-Ig; also called DVD1334H; DVD1334L
In the case of B4, in assay [1], the dissociation constant Kd is 5.7 nM, the koff is 0.0067 s⁻¹ and the kon stood at 1.2e+06 M⁻¹ s⁻¹.

B5: AB015 (antibody, V domains shown)
VH: EVQLVESGGGLVQPGGSLRLSCAASGFTFTDNWISWVRQAPGKGLEWVGYISPNSGFTYYADSVKGRFTISADTSKNTAYLQMNSLRAEDTAVYYCARDNFGGYFDYWGQGTLVTVSS
VL: DIQMTQSPSSLSASVGDRVTITCRASQDVSTAVAWYQQKPGKAPKLLIYSASFLYSGVPSRFSGSGSGTDFTLTISSLQPEDFATTYYCQQSYTGTVTFGQGTKVEIKR
notes: Parent antibody; also called DLL4; AB015VH
Take B5: in assay [4], the “FACS Geometric Mean” value was determined as 308. In assay [5], the Kd stood at 0.414 nM, the dissociation rate constant (koff) was determined as 0.000166 s⁻¹ and the kon came to 400000 M⁻¹ s⁻¹.

B6: DVD1324 (bispecific antibody, human IgG1, kappa)
heavy: not shown
light: DIQMTQFPSSLSASVGDRVTITCRASQGIRNDLGWYQQKPGKAPKRLIYAASRLHRGVPSRFSGSGSGTEFTLTISSLQPEDFATYYCLQHNSYPCSFGQGTKLEIKRTVAAPDIQMTQSPSSLSASVGDRVTITCRASEDIYNALAWYQQKPGKAPKLLIYNTDTLHTGVPSRFSGSGSGTDYTLTISSLQPEDFATYFCQHYFHYPRTFGQGTKVEIKRTVAAPSVFIFPPSDEQLKSGTASVVCLLNNFYPREAKVQWKVDNALQSGNSQESVTEQDSKDSTYSLSSTLTLSKADYEKHKVYACEVTHQGLSSPVTKSFNRGEC
notes: DVD-Ig; also called DVD1324H; DVD1324L
B6: the “FACS Geometric Mean N-terminal” value in assay [6] is 825.

B7: DVD1332 (bispecific antibody, human IgG1, kappa)
heavy: not shown
light: DIVLTQSPDSLAVSLGERVTMNCKSSQSLLNSGMRKSFLAWYQQKPGQSPKLLIYWASTRESGVPDRFTGSGSGTDFTLTISSVQAEDVAVYYCKQSYHLFTFGSGTKLEIKRTVAAPDIQMTQSPSSLSASVGDRVTITCRASEDIYNALAWYQQKPGKAPKLLIYNTDTLHTGVPSRFSGSGSGTDYTLTISSLQPEDFATYFCQHYFHYPRTFGQGTKVEIKRTVAAPSVFIFPPSDEQLKSGTASVVCLLNNFYPREAKVQWKVDNALQSGNSQESVTEQDSKDSTYSLSSTLTLSKADYEKHKVYACEVTHQGLSSPVTKSFNRGEC
notes: DVD-Ig; also called DVD1332H; DVD1332L
For the molecule B7, in assay [7], the equilibrium dissociation constant (Kd) is 0.055 nM, the koff came to 0.00017 s⁻¹ and the kon is 3e+06 M⁻¹ s⁻¹.

B8: AB011 (antibody, V domains shown)
VH: EVQLLESGGGLVQPGGSLRLSCTASGFTFSSYAMNWVRQAPGKGLEWVSAISGSGGTTFYADSVKGRFTISRDNSRTTLYLQMNSLRAEDTAVYYCAKDLGWSDSYYYYYGMDVWGQGTTVTVSS
VL: DIQMTQFPSSLSASVGDRVTITCRASQGIRNDLGWYQQKPGKAPKRLIYAASRLHRGVPSRFSGSGSGTEFTLTISSLQPEDFATYYCLQHNSYPCSFGQGTKLEIKR
notes: Parent antibody; also called IGFR; IGF1R
For the molecule B8, the “FACS Geometric Mean” value in assay [8] was determined as 535.

B9: DVD1330 (bispecific antibody, human IgG1, kappa)
heavy: not shown
light: DIQMTQSPSSLSASVGDRVTITCRASQDVSTAVAWYQQKPGKAPKLLIYSASFLYSGVPSRFSGSGSGTDFTLTISSLQPEDFATTYYCQQSYTGTVTFGQGTKVEIKRTVAAPDIQMTQSPSSLSASVGDRVTITCRASEDIYNALAWYQQKPGKAPKLLIYNTDTLHTGVPSRFSGSGSGTDYTLTISSLQPEDFATYFCQHYFHYPRTFGQGTKVEIKRTVAAPSVFIFPPSDEQLKSGTASVVCLLNNFYPREAKVQWKVDNALQSGNSQESVTEQDSKDSTYSLSSTLTLSKADYEKHKVYACEVTHQGLSSPVTKSFNRGEC
notes: DVD-Ig; also called DVD1330H; DVD1330L
As to B9, in assay [5], the dissociation constant (Kd) turned out to be 0.38 nM, the koff was found to be 0.0002 s⁻¹ and the on-rate constant (kon) worked out at 520000 M⁻¹ s⁻¹.

B10: AB047 (antibody, V domains shown)
VH: QVQLQQSGAELVKPGASVKISCKASGYTFTDYYINWVKLAPGQGLEWIGWIYPGSGNTKYNEKFKGKATLTIDTSSSTAYMQLSSLTSEDTAVYFCVRDSPFFDYWGQGTLLTVSS
VL: DIVLTQSPDSLAVSLGERVTMNCKSSQSLLNSGMRKSFLAWYQQKPGQSPKLLIYWASTRESGVPDRFTGSGSGTDFTLTISSVQAEDVAVYYCKQSYHLFTFGSGTKLEIKR
notes: Parent antibody; also called PlGF; AB047VH
For B10, in assay [7], the dissociation constant (Kd) turned out to be 0.0282 nM, the off-rate constant (koff) worked out at 0.000108 s⁻¹ and the kon was 3.8e+06 M⁻¹ s⁻¹.
